Results reported in US20220010021A1 (Sanofi, published 2022).
Substitutions are numbered along the chain they refer to.

B1: 16H7 light chain variant S94G (antibody, IgG4, V domains shown)
VH: not shown
VL: SYVLTQPPSVSVAPGQTARITCGGNNIGSESVHWYQQKPGQAPVLVVYDDSDRPSGIPERFSGSNSGNTATLTISRVEAGDEADYYCQVWDGNGDHVVFGGGTKLTVLG
notes: IgG4 backbone
B2: 16H7 light chain variant V32C (antibody, IgG4, V domains shown)
VH: not shown
VL: B1 VL with V32C, G94S
notes: IgG4 backbone
B3: 16H7 light chain variant V97L (antibody, IgG4, V domains shown)
VH: not shown
VL: B1 VL with G94S, V97L
notes: IgG4 backbone
B4: 16H7 light chain variant V32L (antibody, IgG4, V domains shown)
VH: not shown
VL: B1 VL with V32L, G94S
notes: IgG4 backbone
B5: 16H7 light chain variant S94V (antibody, IgG4, V domains shown)
VH: not shown
VL: B1 VL with G94V
notes: IgG4 backbone
B6: 16H7 light chain variant V32W (antibody, IgG4, V domains shown)
VH: not shown
VL: B1 VL with V32W, G94S
notes: IgG4 backbone
B7: 16H7 light chain variant S94I (antibody, IgG4, V domains shown)
VH: not shown
VL: B1 VL with G94I
notes: IgG4 backbone
B8: 16H7 light chain variant V32S (antibody, IgG4, V domains shown)
VH: not shown
VL: B1 VL with V32S, G94S
notes: IgG4 backbone
B9: 16H7 light chain variant S94T (antibody, IgG4, V domains shown)
VH: not shown
VL: B1 VL with G94T
notes: IgG4 backbone
B10: 16H7 light chain variant V32Q (antibody, IgG4, V domains shown)
VH: not shown
VL: B1 VL with V32Q, G94S
notes: IgG4 backbone
B11: 16H7 light chain variant V32Y (antibody, IgG4, V domains shown)
VH: not shown
VL: B1 VL with V32Y, G94S
notes: IgG4 backbone
B12: 16H7 light chain variant V97C (antibody, IgG4, V domains shown)
VH: not shown
VL: B1 VL with G94S, V97C
notes: IgG4 backbone
B13: 16H7 light chain variant S94W (antibody, IgG4, V domains shown)
VH: not shown
VL: B1 VL with G94W
notes: IgG4 backbone
B14: 16H7 light chain variant V32I (antibody, IgG4, V domains shown)
VH: not shown
VL: B1 VL with V32I, G94S
notes: IgG4 backbone
B15: 16H7 light chain variant V32N (antibody, IgG4, V domains shown)
VH: not shown
VL: B1 VL with V32N, G94S
notes: IgG4 backbone
B16: 16H7 light chain variant V32H (antibody, IgG4, V domains shown)
VH: not shown
VL: B1 VL with V32H, G94S
notes: IgG4 backbone
B17: 16H7 light chain variant V32D (antibody, IgG4, V domains shown)
VH: not shown
VL: B1 VL with V32D, G94S
notes: IgG4 backbone
B18: 16H7 light chain variant S94M (antibody, IgG4, V domains shown)
VH: not shown
VL: B1 VL with G94M
notes: IgG4 backbone
B19: 16H7 light chain variant V32K (antibody, IgG4, V domains shown)
VH: not shown
VL: B1 VL with V32K, G94S
notes: IgG4 backbone
B20: 16H7 light chain variant V32A (antibody, IgG4, V domains shown)
VH: not shown
VL: B1 VL with V32A, G94S
notes: IgG4 backbone
B21: 16H7 light chain variant S94Y (antibody, IgG4, V domains shown)
VH: not shown
VL: B1 VL with G94Y
notes: IgG4 backbone
B22: 16H7 light chain variant S94L (antibody, IgG4, V domains shown)
VH: not shown
VL: B1 VL with G94L
notes: IgG4 backbone
B23: 16H7 light chain variant V32G (antibody, IgG4, V domains shown)
VH: not shown
VL: B1 VL with V32G, G94S
notes: IgG4 backbone
B24: 16H7 light chain variant V32M (antibody, IgG4, V domains shown)
VH: not shown
VL: B1 VL with V32M, G94S
notes: IgG4 backbone
B25: 16H7 light chain variant V32T (antibody, IgG4, V domains shown)
VH: not shown
VL: B1 VL with V32T, G94S
notes: IgG4 backbone
B26: 16H7 light chain variant S94R (antibody, IgG4, V domains shown)
VH: not shown
VL: B1 VL with G94R
notes: IgG4 backbone
B27: 16H7 light chain variant S94N (antibody, IgG4, V domains shown)
VH: not shown
VL: B1 VL with G94N
notes: IgG4 backbone
B28: 16H7 light chain variant V32F (antibody, IgG4, V domains shown)
VH: not shown
VL: B1 VL with V32F, G94S
notes: IgG4 backbone
B29: 16H7 light chain variant V97F (antibody, IgG4, V domains shown)
VH: not shown
VL: B1 VL with G94S, V97F
notes: IgG4 backbone
B30: 16H7 light chain variant V97I (antibody, IgG4, V domains shown)
VH: not shown
VL: B1 VL with G94S, V97I
notes: IgG4 backbone

How the values were obtained:
human beta-Klotho (KLB) = biological target: T1, human beta-Klotho (KLB) (human, UniProt Q86Z14 53-997); experiment: BLI off-rate screening (Octet), crude supernatant;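 note: supernatants tested at 25 µg/mL, dissociation from biosensors recorded in D-PBS with 0.1% BSA over 1800 s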
T1 construct: Bought protein; also called human KLB; β-Klotho
T1 sequence (looked up): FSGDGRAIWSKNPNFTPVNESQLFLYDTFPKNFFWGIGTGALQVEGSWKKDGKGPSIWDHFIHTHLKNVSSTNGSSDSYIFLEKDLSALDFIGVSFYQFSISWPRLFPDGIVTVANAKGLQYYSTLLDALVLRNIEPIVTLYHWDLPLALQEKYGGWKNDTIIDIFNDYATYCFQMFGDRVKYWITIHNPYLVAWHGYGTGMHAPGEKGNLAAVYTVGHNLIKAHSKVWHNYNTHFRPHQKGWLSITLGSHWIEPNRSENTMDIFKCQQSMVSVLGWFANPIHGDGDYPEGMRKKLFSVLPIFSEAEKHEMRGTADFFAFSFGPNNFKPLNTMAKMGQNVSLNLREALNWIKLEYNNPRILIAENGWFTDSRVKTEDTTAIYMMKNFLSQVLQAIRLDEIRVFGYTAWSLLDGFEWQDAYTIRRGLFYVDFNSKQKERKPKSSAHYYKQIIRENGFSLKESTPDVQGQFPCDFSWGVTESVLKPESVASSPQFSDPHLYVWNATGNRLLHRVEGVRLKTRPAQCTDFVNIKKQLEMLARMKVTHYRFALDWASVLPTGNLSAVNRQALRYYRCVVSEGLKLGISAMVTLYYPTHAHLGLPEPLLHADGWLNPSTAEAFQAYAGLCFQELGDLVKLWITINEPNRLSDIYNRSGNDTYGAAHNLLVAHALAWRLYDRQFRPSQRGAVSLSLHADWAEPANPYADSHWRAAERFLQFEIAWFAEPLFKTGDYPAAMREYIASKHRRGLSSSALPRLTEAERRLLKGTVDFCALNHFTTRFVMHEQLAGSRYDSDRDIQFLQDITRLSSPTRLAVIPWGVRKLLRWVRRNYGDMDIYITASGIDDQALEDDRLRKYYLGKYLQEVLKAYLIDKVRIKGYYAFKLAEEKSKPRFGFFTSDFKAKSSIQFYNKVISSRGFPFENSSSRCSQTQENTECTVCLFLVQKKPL

[1] = biological target: cell surface receptor composed of FGFR1c and co-receptor beta-Klotho (KLB) (human, UniProt P11362 22-822; Q86Z14 1-1044); experiment: cell-based or functional assay; for Mean E max, Luciferase reporter gene assay: reference of the scale not given here
cell surface receptor composed of FGFR1c and co-receptor beta-Klotho (KLB), sequence (P11362 22-822, chain 1 of 2): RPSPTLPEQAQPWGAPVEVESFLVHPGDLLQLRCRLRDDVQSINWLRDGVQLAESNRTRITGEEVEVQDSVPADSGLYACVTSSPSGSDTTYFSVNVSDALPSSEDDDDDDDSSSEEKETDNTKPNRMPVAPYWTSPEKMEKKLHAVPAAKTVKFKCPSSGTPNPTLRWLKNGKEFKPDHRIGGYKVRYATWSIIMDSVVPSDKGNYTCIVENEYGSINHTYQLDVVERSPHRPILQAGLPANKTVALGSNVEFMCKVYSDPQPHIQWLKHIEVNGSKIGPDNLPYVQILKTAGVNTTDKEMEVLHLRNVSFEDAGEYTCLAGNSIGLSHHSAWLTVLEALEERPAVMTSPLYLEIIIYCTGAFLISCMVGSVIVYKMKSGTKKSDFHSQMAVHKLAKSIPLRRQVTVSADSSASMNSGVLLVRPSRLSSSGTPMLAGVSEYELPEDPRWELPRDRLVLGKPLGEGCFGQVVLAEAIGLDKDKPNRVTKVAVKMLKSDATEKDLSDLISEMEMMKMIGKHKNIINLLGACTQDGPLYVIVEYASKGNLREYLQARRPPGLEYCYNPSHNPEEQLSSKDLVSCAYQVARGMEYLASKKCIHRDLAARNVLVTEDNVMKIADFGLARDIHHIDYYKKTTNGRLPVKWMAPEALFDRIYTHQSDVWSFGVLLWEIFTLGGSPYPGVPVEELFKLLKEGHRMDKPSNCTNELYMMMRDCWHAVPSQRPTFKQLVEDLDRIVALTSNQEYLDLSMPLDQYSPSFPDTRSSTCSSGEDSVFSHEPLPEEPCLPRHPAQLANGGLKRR
cell surface receptor composed of FGFR1c and co-receptor beta-Klotho (KLB), sequence (Q86Z14 whole entry, chain 2 of 2): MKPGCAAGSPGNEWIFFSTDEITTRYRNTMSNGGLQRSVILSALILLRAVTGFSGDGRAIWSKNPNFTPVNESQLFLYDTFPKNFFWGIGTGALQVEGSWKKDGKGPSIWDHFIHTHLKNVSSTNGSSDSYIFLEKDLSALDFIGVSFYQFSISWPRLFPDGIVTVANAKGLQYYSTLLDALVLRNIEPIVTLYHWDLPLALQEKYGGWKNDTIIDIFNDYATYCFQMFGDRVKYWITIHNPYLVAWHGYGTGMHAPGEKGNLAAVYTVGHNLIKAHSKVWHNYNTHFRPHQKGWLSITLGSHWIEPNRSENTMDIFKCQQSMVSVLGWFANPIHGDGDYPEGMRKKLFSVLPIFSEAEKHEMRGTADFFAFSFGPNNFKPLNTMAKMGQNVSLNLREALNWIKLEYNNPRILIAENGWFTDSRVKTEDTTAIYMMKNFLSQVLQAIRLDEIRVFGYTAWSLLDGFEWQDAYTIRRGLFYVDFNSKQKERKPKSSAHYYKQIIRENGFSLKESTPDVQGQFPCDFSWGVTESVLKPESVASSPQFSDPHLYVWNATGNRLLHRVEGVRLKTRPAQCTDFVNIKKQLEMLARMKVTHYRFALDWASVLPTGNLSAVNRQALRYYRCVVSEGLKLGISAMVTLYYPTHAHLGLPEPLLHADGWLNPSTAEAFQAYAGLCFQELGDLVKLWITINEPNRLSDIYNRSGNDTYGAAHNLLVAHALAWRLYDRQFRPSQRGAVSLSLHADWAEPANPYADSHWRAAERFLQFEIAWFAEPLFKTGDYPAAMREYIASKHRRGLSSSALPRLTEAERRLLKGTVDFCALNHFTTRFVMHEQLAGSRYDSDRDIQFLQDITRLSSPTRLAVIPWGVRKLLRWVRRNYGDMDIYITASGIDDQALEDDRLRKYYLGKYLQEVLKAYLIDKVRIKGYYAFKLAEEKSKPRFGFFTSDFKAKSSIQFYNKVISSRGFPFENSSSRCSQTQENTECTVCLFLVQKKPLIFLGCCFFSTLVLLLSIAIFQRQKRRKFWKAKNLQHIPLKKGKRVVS

| Binder | koff (human beta-Klotho (KLB)) | Mean E max, Luciferase reporter gene assay [1] | Mean EC50, Luciferase reporter gene assay [1] |
| --- | --- | --- | --- |
| B1 | 6.8e-05 s⁻¹ | 100% | 0.146 nM |
| B2 | 5.1e-06 s⁻¹ | 99% | 0.108 nM |
| B3 | 5.9e-05 s⁻¹ | 110% | 0.129 nM |
| B4 | 4.9e-05 s⁻¹ | 104% | 0.126 nM |
| B5 | 2.8e-05 s⁻¹ | 108% | 0.119 nM |
| B6 | 0.00023 s⁻¹ | 102% | 0.145 nM |
| B7 | 4.3e-05 s⁻¹ | 106% | 0.126 nM |
| B8 | 5.1e-05 s⁻¹ | 102% | 0.124 nM |
| B9 | 3.2e-05 s⁻¹ | 109% | 0.116 nM |
| B10 | 0.00025 s⁻¹ | 91% | 0.166 nM |
| B11 | 1.9e-05 s⁻¹ | 106% | 0.103 nM |
| B12 | 0.00023 s⁻¹ | 104% | 0.19 nM |
| B13 | 4.3e-05 s⁻¹ | 103% | 0.159 nM |
| B14 | 2e-05 s⁻¹ | 113% | 0.133 nM |
| B15 | 4.4e-05 s⁻¹ | 104% | 0.123 nM |
| B16 | 7.3e-05 s⁻¹ | 100% | 0.147 nM |
| B17 | 0.00025 s⁻¹ | 92% | 0.141 nM |
| B18 | 1.2e-05 s⁻¹ | 101% | 0.117 nM |
| B19 | 2.6e-05 s⁻¹ | 101% | 0.158 nM |
| B20 | 4.7e-05 s⁻¹ | 108% | 0.144 nM |
| B21 | 6.2e-05 s⁻¹ | 100% | 0.098 nM |
| B22 | 4.4e-05 s⁻¹ | 103% | 0.169 nM |
| B23 | 6.5e-05 s⁻¹ | 103% | 0.24 nM |
| B24 | 9.5e-05 s⁻¹ | 103% | 0.135 nM |
| B25 | 7e-05 s⁻¹ | 107% | 0.107 nM |
| B26 | 5.7e-05 s⁻¹ | 104% | 0.123 nM |
| B27 | 3.3e-05 s⁻¹ | 103% | 0.133 nM |
| B28 | 4.1e-05 s⁻¹ | 100% | 0.102 nM |
| B29 | 2.1e-05 s⁻¹ | 45% | 3.02 nM |
| B30 | 1.7e-05 s⁻¹ | 110% | 0.12 nM |
